According to publication PMC3290565:

Target: T1, NalC-His (Pseudomonas aeruginosa K767) (UniProt Q9HXS0)
T1 sequence: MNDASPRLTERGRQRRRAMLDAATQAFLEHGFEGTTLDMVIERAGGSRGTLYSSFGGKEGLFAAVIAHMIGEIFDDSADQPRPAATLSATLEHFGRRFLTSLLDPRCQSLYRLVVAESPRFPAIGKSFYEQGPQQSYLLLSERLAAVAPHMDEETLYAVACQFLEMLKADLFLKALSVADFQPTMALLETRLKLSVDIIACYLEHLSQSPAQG
Assay: EMSA

Row | Sequence | binding
1 | TTAGGGTTGACGCTGGTCATTTAAGAACTGTATCGTACAGTACTGTTTTGGCAAGCACTTCCGCTCATTCCTCCGCCTTGCCTCCCCGCAGGAGTCCCCCCA (double strand) [PA3720-distal fragment (endpoints I)] | no binding
2 | GAGCGGTATCGGGCCTCGCGGGGTGGCGGTCGGAAGGTGCGCATGGTGGGCCGTCGGGACGGTCCGTTCAAGCCTCCAGGCGGTTTGCTGAGAGCGTTTCTCGTTAGGGTTGACGCTGGTCATTTAAGAACTGTATCGTACAGTACTGTTTTGGCAAGCACTTCCGCTCATTCCTCCGCCTTGCCTCCCCGCAGGAGTCCCCCCA (double strand) [nalC-PA3720 intergenic region] | binds
3 | CTAACGAGAAACGCTCTCAGCAAACCGCCTGGAGGCTTGAACGGACCGTCCCGACGGCCCACCATGCGCACCTTCCGACCGCCACCCCGCGAGGCCCGATACCGCTC (double strand) [PA3720-proximal fragment (endpoints II)] | binds
